Data on six molecules can be found in US20250179196A1 (Janssen / Centocor, published 2025).

Where only a bound is given, the exact number is not on record here.

Assay [1] concerns the target T1, rat IL-23R extracellular domain (ECD) protein (rat).
T1 construct: also called rat IL-23R ECD; F1LX96 amino acids 24-354
T1 chain: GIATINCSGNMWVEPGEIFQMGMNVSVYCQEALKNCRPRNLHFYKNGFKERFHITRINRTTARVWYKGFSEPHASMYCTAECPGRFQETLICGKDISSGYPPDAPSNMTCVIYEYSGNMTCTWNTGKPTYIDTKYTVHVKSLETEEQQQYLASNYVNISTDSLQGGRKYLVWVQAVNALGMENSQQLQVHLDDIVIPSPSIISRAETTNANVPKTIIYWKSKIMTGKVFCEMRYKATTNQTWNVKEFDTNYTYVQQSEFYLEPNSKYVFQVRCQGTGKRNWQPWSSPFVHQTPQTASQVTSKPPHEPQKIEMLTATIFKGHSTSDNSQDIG
Description: SPR Biacore 8K, purified. The protocol: (§1) Affinity by SPR using Biacore 8K. Affinity measurements using Surface Plasmon Resonance (SPR) were performed using a Biacore 8K system (Cytiva). […] Approximately 9000-10000 RU (response units) of mAbs were immobilized. The kinetic experiments were performed at 25° C. in running buffer 1× of (HBS-P+ Buffer 10× (Cytiva #BR100671)+100 μg/ml BSA). To perform kinetic experiments, approximately 150 RU of mAbs were captured followed by injections of human IL-23R or rat IL-23R at concentrations ranging from 0.8 nM to 500 nM (in a 5-fold serial dilution). The association phase was monitored for 3 minutes at 50 μL/min, then followed by 30 minutes of buffer flow (dissociation phase). […] The collected data were processed using Biacore insight Evaluation software (Version 3.0.12.15655). The kinetic analysis of the data was performed using a Langmuir 1:1 binding model. The result for each mAb was reported in the format of Ka (On-rate), Kd (Off-rate) and KD (equilibrium dissociation constant).
(In general: SPR reads the build-up and loss of mass on a sensor chip optically.)

Assay [2] addresses T2, Recombinant human IL-23 receptor (IL-23R) extracellular domain (ECD) protein (human, UniProt Q5VWK5 24-355).
T2 construct: also called human IL-23R ECD; hu IL-23R ECD
T2 sequence: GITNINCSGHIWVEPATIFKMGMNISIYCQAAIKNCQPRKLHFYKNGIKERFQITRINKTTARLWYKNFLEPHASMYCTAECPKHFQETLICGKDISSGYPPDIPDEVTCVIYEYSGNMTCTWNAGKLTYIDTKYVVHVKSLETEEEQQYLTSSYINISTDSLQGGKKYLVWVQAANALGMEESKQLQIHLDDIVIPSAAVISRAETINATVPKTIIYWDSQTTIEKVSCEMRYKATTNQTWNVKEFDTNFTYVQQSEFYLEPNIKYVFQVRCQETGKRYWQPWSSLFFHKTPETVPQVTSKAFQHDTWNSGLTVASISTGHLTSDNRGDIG
Description: SPR Biacore 8K, purified, analysis 1. Here is the method:
as §1

Assay [3] addresses T2, Recombinant human IL-23 receptor …. Description: SPR Biacore 8K, purified, analysis 2. The protocol:
as §1

For assay [4] the target is unchanged. Description: SPR Biacore 8K, supernatant, analysis 2. In outline: (§2)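 mAbs captured (~150 RU) on Biacore 8K; human or rat IL-23R ECD injected at 0.8–500 nM (5-fold series) at 25 °C in HBS-P+ with 100 μg/ml BSA. Association 3 min at 50 μL/min, dissociation 30 min. Ka, Kd and KD from Langmuir 1:1 fit.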
Assay [5] shares this target. Description: SPR ProteOn, purified. The protocol:
Affinity by SPR using ProteOn. Affinity measurements using Surface Plasmon Resonance (SPR) were performed using a ProteOn XPR36 system (BioRad). […] Approximately 6000 RU (response units) of mAbs were immobilized. The kinetic experiments were performed at 25° C. in running buffer (DPBS+0.01% P20+100 μg/ml BSA). […] The association phase was monitored for 3 minutes at 50 μL/min, then followed by 10 minutes of buffer flow (dissociation phase). The chip surface was regenerated with two 18 second pulses of 100 mM H3PO4 (Sigma, Cat #7961) at 100 μL/min. The collected data were processed using ProteOn Manager software. First, the data was corrected for background using inter-spots. Then, double reference subtraction of the data was performed by using the buffer injection for analyte injections. The kinetic analysis of the data was performed using a Langmuir 1:1 binding model. The result for each mAb was reported in the format of Ka (On-rate), Kd (Off-rate) and KD (equilibrium dissociation constant).

Assay [6] has the same target. Description: SPR Biacore 8K, supernatant, analysis 1. In short, it runs like this:
as §2

B1: I23RB33 (antibody, mouse IgG2a, kappa, V domains shown)
VH: EVQLQQSGAELVKPGASVKLSCTASGFNIRDIYIHWVKQRPEQGLEWIGRIDPANGHSIYAAKFQGKATITADTSLNIAYMQLSSLTSGDTAVYYCARGSDNDYGRVLAYWGLGTSVTVSS
VL: DIVLTQSPAIMSASPGEKVTMTCRASSSVRSSYLHWYQQKSGASPKLWIYSTSNLASGVPARFSGSGSGTSYSLTITSVEAEDAATYYCQQYTGNPIFTFGSGTKLELKR
notes: mouse immunization; mouse IgG2a/kappa
For B1, in assay [1], the binding result was “no binding (tested: 500 nM)”. For the same molecule, in assay [2], the Kd (in general, a measure of binding affinity in units of concentration) turned out to be 0.162 nM; the dissociation rate constant (koff) (usually the rate constant with which the complex falls apart) was found to be 0.000155 s⁻¹; the kon (in general, the rate constant with which the complex forms) turned out to be 957000 M⁻¹ s⁻¹. Also, in assay [3], the Kd is 0.216 nM, the koff worked out at 0.000149 s⁻¹ and the kon turned out to be 691000 M⁻¹ s⁻¹. In assay [4], the Kd turned out to be 0.218 nM, the koff is 0.000146 s⁻¹ and the kon was determined as 672000 M⁻¹ s⁻¹.

B2: I23RB32 (antibody, mouse IgG2a, kappa, V domains shown)
VH: EFQLQQSGPELVKPGASVKLSCKASGYTFTDYALHWVKQSPGQGLEWIGWIYPGGGNTYYNDKFKGKATMTADKSSSTAYMQLSSLTSEDSAVYFCARGRLRRDYPMDYWGQGTSVTVSS
VL: DIVMTQSPSSLTVTAGEKVTMSCKSSQSLLNSGNQKNYLTWYQQKPGQPPKLLIYWASTRESGVPDRFTGSGSGTDFTLTISSVQAEDLAVYYCQNDYTYPLTFGSGTKLEIKR
notes: as for B1
Turning to B2, the binding result in assay [1] is reported as “no binding (tested: 500 nM)”. Further, in assay [2], the Kd came to 0.332 nM, the koff was 0.000182 s⁻¹ and the on-rate constant (kon) worked out at 550000 M⁻¹ s⁻¹. In assay [3], the Kd was 0.34 nM, the koff was determined as 0.000172 s⁻¹ and the kon was 506000 M⁻¹ s⁻¹.

B3: I23RB1 (antibody, mouse IgG2a, kappa, V domains shown)
VH: QVQLVQSGAEVKKPGSSVKVSCKASGGTFKNYAISWVRQAPGQGLEWMGWIRPIFGTAYYAQKFQGRVTITADESTSTAYMELSSLRSEDTAVYYCARDSGSRYAGRYAFDYWGQGTLVTVSS
VL: EIVLTQSPATLSLSPGERATLSCRASQSVSSYLAWYQQKPGQAPRLLIYDASNRATGIPARFSGSGSGTDFTLTISSLEPEDFAVYYCQQRSNWPLTFGQGTKVEIKR
notes: phage display; human V regions, mouse IgG2a/kappa constant regions
As for B3, in assay [5], the Kd worked out at 0.667 nM, the koff is 0.00229 s⁻¹ and the kon turned out to be 3.45e+06 M⁻¹ s⁻¹. Also, in assay [1], the binding result is on record as “no binding (tested: 500 nM)”. In assay [2], the Kd turned out to be 2.8 nM, the koff was 0.00111 s⁻¹ and the kon worked out at 399000 M⁻¹ s⁻¹. Moreover, in assay [4], the Kd worked out at 2.62 nM, the koff is 0.000982 s⁻¹ and the kon came out at 376000 M⁻¹ s⁻¹.

B4: I23RB7 (antibody, mouse IgG2a, kappa, V domains shown)
VH: QIQLVQSGPELKKPGETVKISCKASGYTFTTYGMSWVKQAPGKGLKWMGWINTYSGVPTYADDFKGRFAFSLETSASTAYLQINNLKNEDTATYYCARRDRYGYVAGAFAYWGQGTLVTVSS
VL: QIVLTQSPAIMSASPGEKVTMTCSASSSVSYMYWYQQKPGSSPRLLIYDTSNLASGVPVRFSGSGSGTSYSLTISRMEAEDAATYYCQQWSSYPWTFGGGTKLEIKR
notes: phage display (mouse library); mouse antibody, mouse IgG2a/kappa
For the molecule B4, the dissociation constant Kd worked out at 0.39 nM in assay [5], 524 nM in assay [1], 1.23 nM in assay [3] and 1.23 nM in assay [4]. The koff in assay [5] was 0.000226 s⁻¹; in assay [1], 0.0127 s⁻¹; in assay [3] it was 0.000246 s⁻¹; in assay [4] it was 0.000247 s⁻¹. The kon in assay [5] came out at 581000 M⁻¹ s⁻¹; in assay [1] it was 24200 M⁻¹ s⁻¹; in assay [3] it was 199000 M⁻¹ s⁻¹; in assay [4] it was 200000 M⁻¹ s⁻¹.

B5: I23RB47 (antibody, mouse IgG2a, kappa, V domains shown)
VH: QVQLKESGPGLVAPSQSLSITCTVSGFSLTNYDIHWVRQSPGKGLEWLGVIWSDGRTDYKGAFISRLSISKDNSKSQVFFKMNSLQADDTAIYYCARNNYYRYGRNTMDYWGQGTSVTVSS
VL: DIVLTQSPASQSASLGESVTITCLASQTIGSWLAWYQQKPGKSPQLLIYAATRLADGVPSRFSGSGSGTKFSFKISSLQAEDFVFYYCHQLYSIPLTFGGGTKLEMKR
notes: as for B1
Take B5: in assay [1], the binding result is “no binding (tested: 500 nM)”. In addition, in assay [3], the Kd was found to be 0.114 nM, the koff worked out at 5.17e-05 s⁻¹ and the kon turned out to be 453000 M⁻¹ s⁻¹. In assay [6], the Kd was less than 0.051 nM, the off-rate (koff) is less than 2.89e-05 s⁻¹ and the kon was 566000 M⁻¹ s⁻¹. In addition, in assay [4], the Kd amounted to 0.119 nM, the koff was found to be 5.32e-05 s⁻¹ and the kon was found to be 445000 M⁻¹ s⁻¹.

B6: I23RB35 (antibody, mouse IgG2a, kappa, V domains shown)
VH: DVQLQESGPGLVKPSQSLSLTCSVTGYSITSGHNWNWIRQFPGNKLEWLGYISYDGSNNYDPSLKNRISITRDTSKNQFFLKLNSVTTEDTATYYCARGGGYFGNSYRVFASWGQGTTVTVSS
VL: DIVLTQSPASLAVSLGQRATISCRASESVDSYGNSFMHWYQQKPGQPPKLLIYRASNLESEIPARFSGRGSGTDFTLTINPVEADDVATYYCQQSNADPYTFGGGTKLEIKR
notes: as for B1
Regarding B6, the binding result in assay [1] is “no binding (tested: 500 nM)”. In assay [2], the dissociation constant (Kd) was less than 0.0527 nM, the koff was less than 2.89e-05 s⁻¹ and the kon was determined as 549000 M⁻¹ s⁻¹. Besides, in assay [3], the Kd is less than 0.0687 nM, the koff was less than 2.89e-05 s⁻¹ and the kon was found to be 421000 M⁻¹ s⁻¹. Further, in assay [4], the Kd was less than 0.0777 nM, the koff was less than 2.89e-05 s⁻¹ and the kon worked out at 372000 M⁻¹ s⁻¹.
